# Results from patent US20260266848A1, “COMPOSITIONS AND METHODS FOR DIAGNOSING AND TREATING DYSTONIA” (Duke University, priority 2023, published 2026).
# B1: Mcm2 (protein, UniProt P97310 2-904, looked up)
# DNA replication licensing …: AESSESLSASSPARQRRRISDPLTSSPGRSSRRADALTSSPGRDLPPFEDESEGLLGTEGPMEEEEDGEELIGDGMERDYRPIPELDVYEAEGLALDDEDVEELTASQREAAERTMRQRDREAGRGLGRMRRGLLYDSSEEDEERPARKRRHVERATEDGEEDEEMIESIENLEDLKGHSVREWVSMAGPRLEIHHRFKNFLRTHVDSHGHNVFKERISDMCKENRESLVVNYEDLAAREHVLAYFLPEAPAELLQIFDEAALEVVLAMYPKYDRITNHIHVRISHLPLVEELRSLRQLHLNQLIRTSGVVTSCTGVLPQLSMVKYNCSKCNFVLGPFCQSQNQEVKPGSCPECQSAGPFEINMEETIYQNYQRIRIQESPGKVAAGRLPRSKDAILLADLVDSCKPGDEIELTGIYHNNYDGSLNTANGFPVFATIILANHVAKKDNKVAVGELTDEDVKMITGLSKDQQIGEKIFASIAPSIYGHEDIKRGLALALFGGEPKNPGGKHKVRGDINVLLCGDPGTAKSQFLKYIEKVSSRAIFTTGQGASAVGLTAYVQRHPVSREWTLEAGALVLADRGVCLIDEFDKMNDQDRTSIHEAMEQQSISISKAGIVTSLQARCTVIAAANPIGGRYDPSLTFSENVDLTEPIISRFDVLCVVRDTVDPVQDEMLARFVVGSHVRHHPSNKKDEGLTNGGTLEPAMPNTYGVEPLPQEVLKKYIIYAKERVRPKLNQMDQDKVARMYSDLRKESMATGSIPITVRHIESMIRMAEAHARMHLRDYVMEDDVNMAIRVMMESFIDTQKFSVMRSMRKTFARYLSFRRDNNDLLLFILKQLVAEQVTYQRNRFGAQQDTIEIPEKDLMDKARQINIHNLSAFYDSDLFKFNKFSRDLKRKLILQQF
# B2: Ddr2 (protein, UniProt Q62371 22-854, looked up)
# Discoidin domain-containing …: KAQVNPAICRYPLGMSGGHIPDEDITASSQWSESTAAKYGRLDSEEGDGAWCPEIPVQPDDLKEFLQIDLRTLHFITLVGTQGRHAGGHGIEFAPMYKINYSRDGSRWISWRNRHGKQVLDGNSNPYDVFLKDLEPPIVARFVRLIPVTDHSMNVCMRVELYGCVWLDGLVSYNAPAGQQFVLPGGSIIYLNDSVYDGAVGYSMTEGLGQLTDGVSGLDDFTQTHEYHVWPGYDYVGWRNESATNGFIEIMFEFDRIRNFTTMKVHCNNMFAKGVKIFKEVQCYFRSEASEWEPTAVYFPLVLDDVNPSARFVTVPLHHRMASAIKCQYHFADTWMMFSEITFQSDAAMYNNSGALPTSPMAPTTYDPMLKVDDSNTRILIGCLVAIIFILLAIIVIILWRQFWQKMLEKASRRMLDDEMTVSLSLPSESSMFNNNRSSSPSEQESNSTYDRIFPLRPDYQEPSRLIRKLPEFAPGEEESGCSGVVKPAQPNGPEGVPHYAEADIVNLQGVTGGNTYCVPAVTMDLLSGKDVAVEEFPRKLLAFKEKLGEGQFGEVHLCEVEGMEKFKDKDFALDVSANQPVLVAVKMLRADANKNARNDFLKEIKIMSRLKDPNIIRLLAVCITEDPLCMITEYMENGDLNQFLSRHEPLSSCSSDATVSYANLKFMATQIASGMKYLSSLNFVHRDLATRNCLVGKNYTIKIADFGMSRNLYSGDYYRIQGRAVLPIRWMSWESILLGKFTTASDVWAFGVTLWETFTFCQEQPYSQLSDEQVIENTGEFFRDQGRQIYLPQPALCPDSVYKLMLSCWRRETKHRPSFQEIHLLLLQQGAE
# B3: Lmna (protein, UniProt P48678 1-662, looked up)
# Prelamin-A/C: METPSQRRATRSGAQASSTPLSPTRITRLQEKEDLQELNDRLAVYIDRVRSLETENAGLRLRITESEEVVSREVSGIKAAYEAELGDARKTLDSVAKERARLQLELSKVREEFKELKARNTKKEGDLLAAQARLKDLEALLNSKEAALSTALSEKRTLEGELHDLRGQVAKLEAALGEAKKQLQDEMLRRVDAENRLQTLKEELDFQKNIYSEELRETKRRHETRLVEIDNGKQREFESRLADALQELRAQHEDQVEQYKKELEKTYSAKLDNARQSAERNSNLVGAAHEELQQSRIRIDSLSAQLSQLQKQLAAKEAKLRDLEDSLARERDTSRRLLAEKEREMAEMRARMQQQLDEYQELLDIKLALDMEIHAYRKLLEGEEERLRLSPSPTSQRSRGRASSHSSQSQGGGSVTKKRKLESSESRSSFSQHARTSGRVAVEEVDEEGKFVRLRNKSNEDQSMGNWQIRRQNGDDPLMTYRFPPKFTLKAGQVVTIWASGAGATHSPPTDLVWKAQNTWGCGSSLRTALINSTGEEVAMRKLVRSLTMVEDNEDDDEDGEELLHHHRGSHCSGSGDPAEYNLRSRTVLCGTCGQPADKAAGGAGAQVGGSISSGSSASSVTVTRSFRSVGGSGGGSFGDNLVTRSYLLGNSSPRSQSSQNC
# B4: Aco1 (protein, UniProt P28271 1-889, looked up)
# Cytoplasmic aconitate …: MKNPFAHLAEPLDAAQPGKRFFNLNKLEDSRYGRLPFSIRVLLEAAVRNCDEFLVKKNDIENILNWNVMQHKNIEVPFKPARVILQDFTGVPAVVDFAAMRDAVKKLGGNPEKINPVCPADLVIDHSIQVDFNRRADSLQKNQDLEFERNKERFEFLKWGSQAFCNMRIIPPGSGIIHQVNLEYLARVVFDQDGCYYPDSLVGTDSHTTMIDGLGVLGWGVGGIEAEAVMLGQPISMVLPQVIGYKLMGKPHPLVTSTDIVLTITKHLRQVGVVGKFVEFFGPGVAQLSIADRATIANMCPEYGATAAFFPVDEVSIAYLLQTGREEDKVKHIQKYLQAVGMFRDFNDTSQDPDFTQVVELDLKTVVPCCSGPKRPQDKVAVSEMKKDFESCLGAKQGFKGFQVAPDRHNDRKTFLYSNSEFTLAHGSVVIAAITSCTNTSNPSVMLGAGLLAKKAVEAGLSVKPYIKTSLSPGSGVVTYYLRESGVMPYLSQLGFDVVGYGCMTCIGNSGPLPEPVVEAITQGDLVAVGVLSGNRNFEGRVHPNTRANYLASPPLVIAYAIAGTVRIDFEKEPLGVNAQGRQVFLKDIWPTRDEIQAVERQHVIPGMFKEVYQKIETVNKSWNALAAPSEKLYAWNPKSTYIKSPPFFESLTLDLQPPKSIVDAYVLLNLGDSVTTDHISPAGNIARNSPAARYLTNRGLTPREFNSYGSRRGNDAIMARGTFANIRLLNKFLNKQAPQTVHLPSGETLDVFDAAERYQQAGLPLIVLAGKEYGSGSSRDWAAKGPFLLGIKAVLAESYERIHRSNLVGMGVIPLEYLPGETADSLGLTGRERYTINIPEDLKPRMTVQIKLDTGKTFQAVMRFDTDVELTYFHNGGILNYMIRKMAQ
# B5: Pdia6 (protein, UniProt Q922R8 20-440, looked up)
# Protein disulfide-isomerase A6: LYSSSDDVIELTPSNFNREVIQSDGLWLVEFYAPWCGHCQRLTPEWKKAATALKDVVKVGAVNADKHQSLGGQYGVQGFPTIKIFGANKNKPEDYQGGRTGEAIVDAALSALRQLVKDRLGGRSGGYSSGKQGRGDSSSKKDVVELTDDTFDKNVLDSEDVWMVEFYAPWCGHCKNLEPEWAAAATEVKEQTKGKVKLAAVDATVNQVLASRYGIKGFPTIKIFQKGESPVDYDGGRTRSDIVSRALDLFSDNAPPPELLEIINEDIAKKTCEEHQLCVVAVLPHILDTGAAGRNSYLEVLLKLADKYKKKMWGWLWTEAGAQYELENALGIGGFGYPAMAAINARKMKFALLKGSFSEQGINEFLRELSFGRGSTAPVGGGSFPTITPREPWDGKDGELPVEDDIDLSDVELDDLEKDEL
# B6: Srp68 (protein, UniProt Q8BMA6 1-625, looked up)
# Signal recognition particle …: MAAEKQIPGGGSGGGGSGSGGGGGGSGGGRSAGGDENKENERPSAGSKANKEFGDSLSLEILQIIKESQQQHGLRHGDFQRYRGYCSRRQRRLRKTLNFKMGNRHKFTGKKVTEELLTDNRYLLLVLMDAERAWSYAMQLKQEANTEPRKRFHLLSRLRKAVKHAEELERLCESNRVDAKTKLEAQAYTAYLSGMLRFEHQEWKSAIEAFNKCKTIYEKLASAFTEEQAVLYNQRVEEISPNIRYCAYNIGDQSAINELMQMRLRSGGTEGLLAEKLEALITQTRAKQAATMSEVEWRGRTVPVKIDKVRIFLLGLADNEAAIVQAESEETKERLFESMLSECRDALQAVREELKPDQKQRDYALDGESGKVSNLQYLHSYLTYIKLSTAIRRNENMAKGLHRALLQQQPEDDSKRSPRPQDLIRLYDIILQNLVELLQLPGLEEDRTFQKEISLKTLVFKAYRCFFIAQSYVLVKKWSEALVLYDRVLKYANEVSSHGGASKNSLKDLPDVQELITQVRSEKCSLQAAAILDANDSHQTDTSSQVKDNTPLVERFESFCLDPSLVTKQANLVHFPPGFQPIPCKPLFFDLALNHVAFPPLEDKLEQKTKSGLTGYIKGIFGFRS
# B7: Cd276 (protein, UniProt Q8VE98 29-316, looked up)
# CD276 antigen: VEVQVSEDPVVALVDTDATLRCSFSPEPGFSLAQLNLIWQLTDTKQLVHSFTEGRDQGSAYSNRTALFPDLLVQGNASLRLQRVRVTDEGSYTCFVSIQDFDSAAVSLQVAAPYSKPSMTLEPNKDLRPGNMVTITCSSYQGYPEAEVFWKDGQGVPLTGNVTTSQMANERGLFDVHSVLRVVLGANGTYSCLVRNPVLQQDAHGSVTITGQPLTFPPEALWVTVGLSVCLVVLLVALAFVCWRKIKQSCEEENAGAEDQDGDGEGSKTALRPLKPSENKEDDGQEIA
# Tested on: WT MEF EVs
# Assay: Quantitative LC-MS/MS proteomics of EVs from ISRIB-treated WT MEF cultures
# Format: cell-based, mouse
# Set-up: key to ISRIB and DYT Parallel Direction / ISRIB and DYT Parallel Direction, Ctdsp1 / ISRIB and DYT Parallel Direction, Pcdh19 / ISRIB and DYT Parallel Direction, Tspan7 / ISRIB and DYT Parallel Direction, Myo1e / ISRIB and DYT Parallel Direction, Plpp3 / ISRIB and DYT Parallel Direction, Sh3bp4 / ISRIB and DYT Parallel Direction, Dnajc7 / ISRIB and DYT Parallel Direction, Drg1 / ISRIB and DYT Parallel Direction, Maea: YES = protein abundance effect similar to DYT/WT
# Details: EV protein abundance, ISRIB-treated WT vs WT
row,Molecule,WT + ISRIB/WT Cohen's d
1,B1,−2.10
2,B2,−7.89
3,B3,−0.19
4,B4,−1.03
5,B5,−1.84
6,B6,−1.21
7,B7,−2.07

# Same assay, conditions: EV protein abundance, WT + ISRIB vs WT, direction compared with DYT/WT
row,Molecule,ISRIB and DYT Parallel Direction
1,B1,YES
2,B2,YES
3,B3,YES
4,B4,YES
5,B5,YES
6,B6,YES
7,B7,YES

# Tested on: DYT-TOR1A MEF EVs
# Assay: Quantitative LC-MS/MS proteomics of EVs from drug-treated DYT-TOR1A MEF cultures (ritonavir, salubrinal)
# Format: cell-based, mouse
# Set-up: key to RTV Corrective Direction / RTV Corrective Direction, Grwd1 / RTV Corrective Direction, Srrm2 / RTV Corrective Direction, Rbm17 / RTV Corrective Direction, Dcaf8 / RTV Corrective Direction, Edil3 / RTV Corrective Direction, Timp3 / RTV Corrective Direction, Heatr3 / RTV Corrective Direction, Brd4 / RTV Corrective Direction, P3h4 / RTV Corrective Direction, Pacsin3 / RTV Corrective Direction, Naa50 / RTV Corrective Direction, Lpar6 / RTV Corrective Direction, Ndrg1 / RTV Corrective Direction, Kntc1 / RTV Corrective Direction, Cdk11b / RTV Corrective Direction, Sumo1 / RTV Corrective Direction, Lsm4 / RTV Corrective Direction, Hmga2 / RTV Corrective Direction, Cstf1 / RTV Corrective Direction, Tes / RTV Corrective Direction, Sbno1 / RTV Corrective Direction, Unc119b / RTV Corrective Direction, Cfdp1 / RTV Corrective Direction, Sec61b: YES = protein abundance effect opposite to DYT/WT
# Details: EV protein abundance, DYT + RTV (ritonavir) vs DYT, direction compared with DYT/WT
row,Molecule,RTV Corrective Direction
1,B1,YES
2,B2,YES
3,B3,YES
4,B4,YES
5,B5,YES
6,B6,YES
7,B7,YES

# Same assay, conditions: EV protein abundance, ritonavir (RTV)-treated DYT vs DYT
row,Molecule,DYT + RTV/DYT Cohen's d
1,B1,3.96
2,B2,0.93
3,B3,3.97
4,B4,3.33
5,B5,3.27
6,B6,2.70
7,B7,1.75
